Source: US20240124575A1
Where two headings read alike, the source gives them in different places.

Assays:
[1] = target: human CD33 on CHO-K1 cells (CHO-K1-human CD33) (human) (UniProt P20138); experiment: FACS, clone CHO-K1-human CD33 B11
[2] = target: human CD33 on CHO-K1 cells (CHO-K1-human CD33) (human) (UniProt P20138); experiment: FACS, clone CHO-K1-human CD33 B8
[3] = target: human CD33 on U937 cells (endogenous) (human) (UniProt P20138); experiment: FACS, U937 cells
[4] = target: human CD33 on CHO-K1 cells (CHO-K1-human CD33) (human) (UniProt P20138); experiment: FACS, clone CHO-K1-human CD33 C8
[5] = target: human CD33 on CHO-K1 cells (CHO-K1-human CD33) (human) (UniProt P20138); experiment: FACS, CHO-K1-human CD33 cells
[6] = target: human CD33 on U937 cells (endogenous) (human) (UniProt P20138); experiment: FACS, U937 cells; remark: listed apart in the source
[7] = target: human CD33-His (extracellular domain Asp 18-His 259) (human) (UniProt P20138); experiment: ELISA, antigen coated
Chain of human CD33-His (extracellular domain Asp 18-His 259) (human) (P20138 18-259 limits assumed): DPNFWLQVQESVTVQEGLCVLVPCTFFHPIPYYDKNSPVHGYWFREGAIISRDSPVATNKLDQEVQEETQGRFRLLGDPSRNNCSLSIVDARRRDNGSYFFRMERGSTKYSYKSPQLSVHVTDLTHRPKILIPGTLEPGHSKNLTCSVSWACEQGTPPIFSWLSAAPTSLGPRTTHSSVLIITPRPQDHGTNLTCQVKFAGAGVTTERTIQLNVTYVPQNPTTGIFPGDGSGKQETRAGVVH

[8] = target: murine CD33-His protein (murine) (UniProt Q63994); experiment: ELISA, antigen coated
Chain of murine CD33-His protein (murine) (Q63994 18-240 limits assumed): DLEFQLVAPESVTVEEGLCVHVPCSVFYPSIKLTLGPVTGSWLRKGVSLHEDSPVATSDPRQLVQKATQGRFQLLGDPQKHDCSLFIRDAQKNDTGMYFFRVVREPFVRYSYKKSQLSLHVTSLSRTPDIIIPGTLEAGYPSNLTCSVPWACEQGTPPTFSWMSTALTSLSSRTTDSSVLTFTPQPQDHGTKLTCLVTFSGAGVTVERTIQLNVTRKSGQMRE

[9] = target: human CD33-C2-his (human) (UniProt P20138); experiment: ELISA, antigen coated
Chain of human CD33-C2-his (human) (P20138 other isoform, or with tags, fused parts or gaps limits assumed): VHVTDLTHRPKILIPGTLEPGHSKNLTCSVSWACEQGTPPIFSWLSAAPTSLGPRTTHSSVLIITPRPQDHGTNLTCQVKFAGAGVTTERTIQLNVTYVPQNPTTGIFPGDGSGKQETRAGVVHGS

human CD33-V-his (human) = human CD33-V-his (human) (UniProt P20138); experiment: ELISA, antigen coated
Chain of human CD33-V-his (human) (P20138 other isoform, or with tags, fused parts or gaps limits assumed): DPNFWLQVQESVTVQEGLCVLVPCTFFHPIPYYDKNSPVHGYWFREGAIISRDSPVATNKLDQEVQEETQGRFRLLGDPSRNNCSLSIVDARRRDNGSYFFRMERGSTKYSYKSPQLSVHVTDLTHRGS

[10] = target: human CD33-His (extracellular domain Asp 18-His 259) (human) (UniProt P20138); experiment: ELISA, antigen coated; remark: listed apart in the source
[11] = target: human CD33-His (extracellular domain Asp 18-His 259) (human) (UniProt P20138); experiment: ELISA, antigen coated; remark: listed apart in the source
[12] = target: human CD33 on CHO-K1 cells (CHO-K1-human CD33) (human) (UniProt P20138); experiment: FACS, CHO-K1-human CD33 cells; remark: listed apart in the source
[13] = target: human CD33-his protein (human) (UniProt P20138); experiment: competition ELISA, coated human CD33-his, vs Biotin-C33B904 at EC80; antibody 3.91 nM
Chain of human CD33-his protein (human) (P20138 18-259 limits assumed): as the sequence (P20138 18-259 limits assumed) above

[14] = target: human CD33-his protein (human) (UniProt P20138); experiment: competition ELISA, coated human CD33-his, vs Biotin-C33B904 at EC80; antibody 15.63 nM
[15] = target: human CD33-his protein (human) (UniProt P20138); experiment: competition ELISA, coated human CD33-his, vs Biotin-C33B904 at EC80; antibody 250.00 nM
[16] = target: human CD33-his protein (human) (UniProt P20138); experiment: competition ELISA, coated human CD33-his, vs Biotin-C33B904 at EC80; antibody 500 nM
[17] = target: human CD33-his protein (human) (UniProt P20138); experiment: competition ELISA, coated human CD33-his, vs Biotin-C33B904 at EC80; antibody 7.81 nM
[18] = target: human CD33-his protein (human) (UniProt P20138); experiment: competition ELISA, coated human CD33-his, vs Biotin-C33B904 at EC80; antibody 15.63 nM; remark: listed apart in the source
[19] = target: human CD33-his protein (human) (UniProt P20138); experiment: competition ELISA, coated human CD33-his, vs Biotin-C33B904 at EC80; antibody 125.00 nM
[20] = target: human CD33-his protein (human) (UniProt P20138); experiment: as above; remark: listed apart in the source
[21] = target: human CD33-his protein (human) (UniProt P20138); experiment: competition ELISA, coated human CD33-his, vs Biotin-C33B904 at EC80; antibody 0.49 nM
[22] = target: human CD33-his protein (human) (UniProt P20138); experiment: as above; remark: listed apart in the source
[23] = target: human CD33-his protein (human) (UniProt P20138); experiment: competition ELISA, coated human CD33-his, vs Biotin-C33B904 at EC80; antibody 7.81 nM; remark: listed apart in the source
[24] = target: human CD33-his protein (human) (UniProt P20138); experiment: competition ELISA, coated human CD33-his, vs Biotin-C33B904 at EC80; antibody 31.25 nM
[25] = target: human CD33-his protein (human) (UniProt P20138); experiment: competition ELISA, coated human CD33-his, vs Biotin-C33B904 at EC80; antibody 250.00 nM; remark: listed apart in the source
[26] = target: human CD33-his protein (human) (UniProt P20138); experiment: competition ELISA, coated human CD33-his, vs Biotin-C33B904 at EC80; antibody 62.50 nM
[27] = target: human CD33-his protein (human) (UniProt P20138); experiment: competition ELISA, coated human CD33-his, vs Biotin-C33B904 at EC80; antibody 0.98 nM
[28] = target: human CD33-his protein (human) (UniProt P20138); experiment: as above; remark: listed apart in the source
[29] = target: human CD33-his protein (human) (UniProt P20138); experiment: competition ELISA, coated human CD33-his, vs Biotin-C33B904 at EC80; antibody 500 nM; remark: listed apart in the source
[30] = target: human CD33-his protein (human) (UniProt P20138); experiment: competition ELISA, coated human CD33-his, vs Biotin-C33B904 at EC80; antibody 31.25 nM; remark: listed apart in the source
[31] = target: human CD33-his protein (human) (UniProt P20138); experiment: competition ELISA, coated human CD33-his, vs Biotin-C33B904 at EC80; antibody 0 nM (no competitor)
[32] = target: human CD33-his protein (human) (UniProt P20138); experiment: as above; remark: listed apart in the source
[33] = target: human CD33-his protein (human) (UniProt P20138); experiment: competition ELISA, coated human CD33-his, vs Biotin-C33B904 at EC80; antibody 3.91 nM; remark: listed apart in the source
[34] = target: human CD33-his protein (human) (UniProt P20138); experiment: competition ELISA, coated human CD33-his, vs Biotin-C33B904 at EC80; antibody 1.95 nM
[35] = target: human CD33-his protein (human) (UniProt P20138); experiment: competition ELISA, coated human CD33-his, vs Biotin-C33B904 at EC80; antibody 62.50 nM; remark: listed apart in the source
[36] = target: human CD33-his protein (human) (UniProt P20138); experiment: competition ELISA, coated human CD33-his, vs Biotin-C33B904 at EC80; antibody 1.95 nM; remark: listed apart in the source

Chain of human CD33 on U937 cells (endogenous) (human) (P20138 18-364): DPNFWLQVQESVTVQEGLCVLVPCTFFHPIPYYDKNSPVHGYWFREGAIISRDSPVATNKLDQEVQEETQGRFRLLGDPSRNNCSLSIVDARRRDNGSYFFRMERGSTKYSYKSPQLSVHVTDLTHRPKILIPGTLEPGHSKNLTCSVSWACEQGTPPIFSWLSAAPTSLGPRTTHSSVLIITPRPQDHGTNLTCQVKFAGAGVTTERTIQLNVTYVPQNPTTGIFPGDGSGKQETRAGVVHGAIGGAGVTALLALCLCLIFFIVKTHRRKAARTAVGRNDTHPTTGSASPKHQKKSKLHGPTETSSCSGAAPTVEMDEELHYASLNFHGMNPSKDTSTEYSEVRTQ
Chain of human CD33 on CHO-K1 cells (CHO-K1-human CD33) (human) (P20138 18-364): as above

IgG subtype control (antibody)
Mean fluorescence intensity of cells [1]: 30.9 MFI | Mean fluorescence intensity of cells [2]: 30.9 MFI | Mean fluorescence intensity of cells [3]: 114 MFI | Mean fluorescence intensity of cells [4]: 30.9 MFI

anti-hel-hIgG1 antibody against hen egg lysozyme
Max MFI [5]: 140 MFI | Max MFI [6]: 84 MFI | OD450 at 0.0001 nM [7]: 0.04 OD450 | OD450 at 0.001 nM [7]: 0.04 OD450 | OD450 at 0.01 nM [7]: 0.04 OD450 | OD450 at 0.1 nM [7]: 0.03 OD450 | OD450 at 1 nM [7]: 0.03 OD450 | OD450 at 10 nM [7]: 0.04 OD450 | OD450 at 100 nM [7]: 0.06 OD450 | OD450 at 0.0001 nM [8]: 0.05 OD450 | OD450 at 0.001 nM [8]: 0.06 OD450 | OD450 at 0.01 nM [8]: 0.06 OD450 | OD450 at 0.1 nM [8]: 0.06 OD450 | OD450 at 1 nM [8]: 0.06 OD450 | OD450 at 10 nM [8]: 0.06 OD450 | OD450 at 100 nM [8]: 0.06 OD450 | OD450 at 0.0001 nM [9]: 0.26 OD450 | OD450 at 0.001 nM [9]: 0.25 OD450 | OD450 at 0.01 nM [9]: 0.24 OD450 | OD450 at 0.1 nM [9]: 0.27 OD450 | OD450 at 1 nM [9]: 0.23 OD450 | OD450 at 10 nM [9]: 0.24 OD450 | OD450 at 100 nM [9]: 0.3 OD450 | OD450 at 0.0001 nM (human CD33-V-his (human)): 0.23 OD450 | OD450 at 0.001 nM (human CD33-V-his (human)): 0.33 OD450 | OD450 at 0.01 nM (human CD33-V-his (human)): 0.2 OD450 | OD450 at 0.1 nM (human CD33-V-his (human)): 0.23 OD450 | OD450 at 1 nM (human CD33-V-his (human)): 0.22 OD450 | OD450 at 10 nM (human CD33-V-his (human)): 0.22 OD450 | OD450 at 100 nM (human CD33-V-his (human)): 0.31 OD450 | OD450 at 0.0001 nM [10]: 0.06 OD450 | OD450 at 0.01 nM [10]: 0.05 OD450 | OD450 at 0.1 nM [10]: 0.06 OD450 | OD450 at 1 nM [10]: 0.06 OD450 | OD450 at 10 nM [10]: 0.08 OD450 | OD450 at 100 nM [10]: 0.1 OD450 | OD450 at 0.0001 nM [11]: 0.05 OD450 | OD450 at 0.001 nM [11]: 0.06 OD450 | OD450 at 0.01 nM [11]: 0.06 OD450 | OD450 at 0.1 nM [11]: 0.05 OD450 | OD450 at 1 nM [11]: 0.05 OD450 | OD450 at 10 nM [11]: 0.05 OD450 | OD450 at 100 nM [11]: 0.05 OD450 | Max MFI [3]: 162 MFI | Max MFI [12]: 389 MFI

hIgG1 (anti-hel-hIgG1 antibody against hen egg lysozyme)
OD450 (Biotin-C33B904 signal) [13]: 2.3 | OD450 (Biotin-C33B904 signal) [14]: 2.3 | OD450 (Biotin-C33B904 signal) [15]: 2.16 | OD450 (Biotin-C33B904 signal) [16]: 2.46 | OD450 (Biotin-C33B904 signal) [17]: 2.17 | OD450 (Biotin-C33B904 signal) [18]: 2.35 | OD450 (Biotin-C33B904 signal) [19]: 2.17 | OD450 (Biotin-C33B904 signal) [20]: 2.34 | OD450 (Biotin-C33B904 signal) [21]: 2.22 | OD450 (Biotin-C33B904 signal) [22]: 2.13 | OD450 (Biotin-C33B904 signal) [23]: 2.33 | OD450 (Biotin-C33B904 signal) [24]: 2.38 | OD450 (Biotin-C33B904 signal) [25]: 2.35 | OD450 (Biotin-C33B904 signal) [26]: 2.35 | OD450 (Biotin-C33B904 signal) [27]: 2.08 | OD450 (Biotin-C33B904 signal) [28]: 2.27 | OD450 (Biotin-C33B904 signal) [29]: 2.34 | OD450 (Biotin-C33B904 signal) [30]: 2.21 | OD450 (Biotin-C33B904 signal) [31]: 2.26 | OD450 (Biotin-C33B904 signal) [32]: 2.24 | OD450 (Biotin-C33B904 signal) [33]: 2.19 | OD450 (Biotin-C33B904 signal) [34]: 2.21 | OD450 (Biotin-C33B904 signal) [35]: 2.17 | OD450 (Biotin-C33B904 signal) [36]: 2.3
